Measured values reported in article PMC9891502.

Target: CMV gB ectodomain protein (human cytomegalovirus) (UniProt P13201)

B1: TRL345 (antibody, V domains shown)
VH: QVQLVESGGGVVQPGRSLRLSCAASGFTFSDYNMHWVRQAPGKGLEWVAVISIDGTYKYSADSVAGRFSLSRDNSKNTLYLQMNSLRPDDTAIYYCARDGRSVGGFSGILDPWGQGTLVTVSS
VL: EIVMTQSPATLSLSPGDRATLSCRASQSVGSYLAWYQQKPGQAPRLLMYDSSVRATGIPARFSGSGSGTDFTLTISSLEPEDFAVYYCQQRNNWPPLTFGGGTKVEIK
B1 showed a neutralization of CMV strain AD169rUL131-GFP on ARPE epithelial cells, IC50 of 0.3 µg/mL, a neutralization of CMV strain AD169rUL131-GFP on MRC-5 fibroblasts, IC50 of 0.24 µg/mL and a neutralization of CMV strain Toledo on MRC-5 fibroblasts, IC50 of 0.19 µg/mL. For the same binder, the neutralization of CMV strain Towne on MRC-5 fibroblasts, IC50 was 0.21 µg/mL.
